This note sets out measurements from article PMC10279526, “Structural basis of centromeric cohesion protection” (Nature Structural & Molecular Biology, 2023).

Non-standard residues stand in square brackets, D forms with d. No end group written: not given here. pT = C[C@@H](OP(=O)(O)O)[C@H](N)C(=O)O

The target of the assay is T1, SA2–SCC1 complex (SA2 amino acid residues 80–1060 with SCC1 amino acid residues 281–420) (UniProt Q8N3U4 80-1060; O60216 281-420).
T1 construct: SA2 (STAG2), cohesin subunit, residues 80-1060; SCC1 (RAD21, Mcd1), cohesin subunit, residues 281-420; also called cohesin subcomplex SA2–SCC1; CES
T1 sequence (looked up) 1: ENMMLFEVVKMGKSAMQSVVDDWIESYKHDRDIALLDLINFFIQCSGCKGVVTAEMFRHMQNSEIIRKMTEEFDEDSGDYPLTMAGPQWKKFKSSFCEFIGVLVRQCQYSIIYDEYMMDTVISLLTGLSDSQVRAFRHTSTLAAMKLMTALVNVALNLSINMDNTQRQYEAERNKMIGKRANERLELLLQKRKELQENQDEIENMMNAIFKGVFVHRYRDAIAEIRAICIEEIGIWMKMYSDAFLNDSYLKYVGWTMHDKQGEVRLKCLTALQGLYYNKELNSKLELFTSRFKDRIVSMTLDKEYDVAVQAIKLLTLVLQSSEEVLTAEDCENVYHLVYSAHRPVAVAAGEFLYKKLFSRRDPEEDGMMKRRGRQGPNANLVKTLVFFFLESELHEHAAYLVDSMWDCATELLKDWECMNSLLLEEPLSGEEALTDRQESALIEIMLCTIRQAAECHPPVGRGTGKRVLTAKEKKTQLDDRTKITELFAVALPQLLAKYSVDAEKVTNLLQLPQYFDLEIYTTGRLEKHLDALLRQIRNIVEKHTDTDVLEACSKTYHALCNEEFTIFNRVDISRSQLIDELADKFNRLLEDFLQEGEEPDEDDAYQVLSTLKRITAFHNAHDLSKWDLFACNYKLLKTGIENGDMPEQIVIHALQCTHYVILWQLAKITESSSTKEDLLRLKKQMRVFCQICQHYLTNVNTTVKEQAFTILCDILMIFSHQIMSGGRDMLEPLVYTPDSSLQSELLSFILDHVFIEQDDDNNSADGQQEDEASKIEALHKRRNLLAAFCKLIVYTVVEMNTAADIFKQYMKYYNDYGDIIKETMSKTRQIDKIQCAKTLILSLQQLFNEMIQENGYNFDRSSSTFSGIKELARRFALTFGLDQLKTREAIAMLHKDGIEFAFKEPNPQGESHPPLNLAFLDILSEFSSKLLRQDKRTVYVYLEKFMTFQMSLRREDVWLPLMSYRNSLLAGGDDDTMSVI
T1 sequence (looked up) 2: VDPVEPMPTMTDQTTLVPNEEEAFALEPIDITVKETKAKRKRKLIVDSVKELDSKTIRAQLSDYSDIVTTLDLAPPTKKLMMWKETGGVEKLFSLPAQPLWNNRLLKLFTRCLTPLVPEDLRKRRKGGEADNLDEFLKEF
As to the kind of experiment: ITC; performed as described previously (ref. 21); data analysed with Origin 7.0; SGO1 peptides with SA2–SCC1. The settings on record: both partners purified. On the technique in general: In ITC the heat of successive injections is recorded.

B1: SGO1 peptide spanning amino acids 331–341 (SNDAYNFNLEE) (peptide)
peptide: SNDAYNFNLEE
notes: Shugoshin 1 (SGO1), human, residues 331-341 with the YxF motif; also called SGO1 331–341; nonphosphorylated SGO1 peptide
What is called Kd is the constant that tells how readily two partners part at equilibrium. High values mean a looser complex, low ones a tighter complex. B1 returned a Kd of 13.5 ± 1.4 µM.

B2: SGO1 peptide spanning amino acids 331–349 containing phosphorylated pT346 (SNDAYNFNLEEGVHLpTPFR) (peptide)
peptide: SNDAYNFNLEEGVHL[pT]PFR
notes: Shugoshin 1 (SGO1), human, residues 331-349, T346 phosphorylated; also called T346-phosphorylated SGO1 fragment; SGO1 331–349 pT346
B2: the Kd was 2.3 ± 0.4 µM.
